The target in assay [1] is T1, human Siglec-7 expressed on CHO cells (human, UniProt Q9Y286 19-467).
T1 construct: NCBI NP_055200.1 is printed; also called Siglec-7 CHO transfectants
Put plainly: flow cytometry on CHO transfectants. Here is the method: (§1) Cells expressing Siglec-3, -5, -6, -7, -8, -9, -11 and -12 were generated using the amino acid sequences and Genbank references for Siglec polypeptides shown below in Table 2. Anti-Siglec-10 antibodies are tested by flow cytometry for binding to the cells. Binding of antibodies on human Siglec-10 was tested by flow cytometry on CHO cells transfected with human Siglec-10, human Siglec-7 or human Siglec-11. Cells were incubated 1h in Staining Buffer (SB) with primary antibodies at 8 ug/ml, then were washed three times with SB. Secondary Goat F(ab′)2 Anti-Human IgG (Fc) PE (Beckman Coulter) was incubated for 30 min at 4° C., cells were washed twice with SB. […] The 6 antibodies bound human Siglec-10 CHO transfectants with high differential in binding affinity over the control Siglec-7 or Siglec-11 CHO transfectants (no or only low residual binding to Siglec-7 or Siglec-11). […] The EC₅₀ as determined by flow cytometry for binding for S10-A antibody to Siglec-10 expressing CHO cells was 0.1 μg/ml.
Background: Flow cytometry measures light scatter and fluorescence of single cells or particles in a stream.

Assay [2] concerns the target T2, human Siglec-10 expressed on CHO cells (human, UniProt Q96LC7 17-697).
T2 construct: NCBI NP_149121 is printed; also called huSiglec-10; Siglec-10 CHO transfectants
T2 sequence: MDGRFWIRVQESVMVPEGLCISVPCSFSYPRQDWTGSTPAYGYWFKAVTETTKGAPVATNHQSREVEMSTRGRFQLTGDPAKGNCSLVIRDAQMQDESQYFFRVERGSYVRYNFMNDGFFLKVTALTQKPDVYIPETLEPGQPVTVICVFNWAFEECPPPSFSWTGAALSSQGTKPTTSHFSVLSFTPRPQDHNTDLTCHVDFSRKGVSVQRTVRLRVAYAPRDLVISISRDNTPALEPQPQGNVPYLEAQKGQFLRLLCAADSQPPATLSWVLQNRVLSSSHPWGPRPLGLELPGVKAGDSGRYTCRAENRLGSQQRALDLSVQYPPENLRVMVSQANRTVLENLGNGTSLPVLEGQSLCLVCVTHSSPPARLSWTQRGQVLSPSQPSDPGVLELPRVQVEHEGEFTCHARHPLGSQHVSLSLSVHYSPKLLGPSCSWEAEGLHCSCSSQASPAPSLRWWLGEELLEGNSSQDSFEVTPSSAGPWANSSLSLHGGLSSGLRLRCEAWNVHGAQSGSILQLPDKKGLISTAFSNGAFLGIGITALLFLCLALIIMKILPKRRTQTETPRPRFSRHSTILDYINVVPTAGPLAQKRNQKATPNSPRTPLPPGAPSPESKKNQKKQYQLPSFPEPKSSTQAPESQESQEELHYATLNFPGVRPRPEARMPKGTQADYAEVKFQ
Put plainly: flow cytometry on Siglec-10 expressing CHO cells.

Assay [3] deals with T2, human Siglec-10 expressed on CHO cells. Put plainly: flow cytometry on CHO transfectants, antibodies at 8 ug/ml. Here is the method: as §1

In patent US20180344829A1 (INNATE PHARMA, published 2018) one finds binding result and EC50 data, which are given here for 3 molecules.

T1 sequence (Q9Y286 19-467): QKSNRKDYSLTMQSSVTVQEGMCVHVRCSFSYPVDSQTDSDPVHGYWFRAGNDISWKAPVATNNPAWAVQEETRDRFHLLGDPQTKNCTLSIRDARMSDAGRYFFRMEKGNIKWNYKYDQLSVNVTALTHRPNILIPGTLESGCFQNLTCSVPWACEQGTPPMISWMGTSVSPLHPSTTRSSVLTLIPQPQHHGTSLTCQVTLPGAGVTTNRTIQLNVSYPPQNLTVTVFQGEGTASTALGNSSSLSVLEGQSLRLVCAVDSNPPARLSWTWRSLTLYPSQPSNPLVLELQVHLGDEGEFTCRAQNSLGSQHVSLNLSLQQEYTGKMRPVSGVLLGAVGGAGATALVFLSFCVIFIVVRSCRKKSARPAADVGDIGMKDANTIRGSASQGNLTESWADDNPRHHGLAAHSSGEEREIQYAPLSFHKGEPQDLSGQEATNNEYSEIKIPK

B1: antibody S10-A (antibody, human IgG1, V domains shown)
VH: QIQLQQSGAELEKPGASVKMSCKASGYTFTSYWMHWVKQRPGQGLEWIGYINPDTDSTEYNQKFRDKATLTADKSSSTAYMQLSSLTSEDSAVYYCARPYYRYAGYAMDYWGQGTSVTVSS
VL: DIKMTQSPSSMYASLGERVTITCKASQDINSYLSWFQQKPGKSPKTLIYRANRLVDGVPSRFSGSGSGQVYSLTISSLEYEDLGIYYCLQYDEFPWTFGGGTKLEIKR
notes: also called CHS2-S10-A
For B1, the binding result in assay [1] is on record as “no binding (tested: 8 ug/ml)”. For the same molecule, the response in assay [2] was half-maximal at 0.1 µg/mL (EC50).

B2: antibody S10-B (antibody, human IgG1, V domains shown)
VH: QVQLKESGPGLVAPSQSLSITCTVSGFSLTDYDVNWVRQPPGKGLEWLGMIWGDGITDYNSALKSRLSISKDNSKSQVFLEMNSLQTDDTARYYCARGGIYYFGNTYGYWFFDVWGAGTTVTVSS
VL: DIVMTQSPSSLAVSTGEKVTMSCKSSQSLLNSRTRKNYLAWYQQKPGQSPKLLIYWASTRESGVPDRFTGSGSGTDFTLTISSVQAEDLAVYYCKQSYNLRTFGGGTKLEIKR
notes: also called CHS2-S10-B
B2: the binding result in assay [1] is “no binding (tested: 8 ug/ml)”; in assay [3], “binds”.

B3: antibody S10-C (antibody, human IgG1, V domains shown)
VH: QVQLKESGPGLVAPSQSLSITCTVSGFSLTDYDVNWVRQPPGKGLEWLGMIWGDGITDYNSALKSRLSISKDNSKSQVFLEMNSLQTDDTARYYCARGGIYYFGNTYGYWFFDVWGAGTTVTVSS
VL: EILLTQSPSSLAVSTGEKVTMSCKSSQSLLNSRTRKNYLAWYQQKPGQSPKLLIYWASTRESGVPDRFTGSGSGTDFTLTISSVQAEDLAVYYCKQSYNLRTFGGGTKLEIKR
notes: also called CHS2-S10-C
For the molecule B3, the results for the binding result in assay [1] and in assay [3] were “no binding (tested: 8 ug/ml)” and “binds”, respectively.
